Biological target: 15N-labeled WT 2N4R tau (microtubule-associated protein tau, longest adult isoform) (human, UniProt P10636-8 1-441, 15N-labeled)
Assay: NMR titration

- binding result: binds
B1: DnaJA2 (natural protein)
chain: not shown

Reference: publication PMC5942583 (Nature structural & molecular biology, 2018)
